Reference: US20240352099A1 (JULIUS MAXIMILIANS UNIVERSIT T W RZBURG, published 2024)

T1: Pra1 on C. albicans strain SC5314 hyphae (Candida albicans, UniProt P87020 16-299)
T1 construct: whole, on cells; The stained target is the whole fungal cell; also called C. albicans hyphae
T1 sequence (looked up): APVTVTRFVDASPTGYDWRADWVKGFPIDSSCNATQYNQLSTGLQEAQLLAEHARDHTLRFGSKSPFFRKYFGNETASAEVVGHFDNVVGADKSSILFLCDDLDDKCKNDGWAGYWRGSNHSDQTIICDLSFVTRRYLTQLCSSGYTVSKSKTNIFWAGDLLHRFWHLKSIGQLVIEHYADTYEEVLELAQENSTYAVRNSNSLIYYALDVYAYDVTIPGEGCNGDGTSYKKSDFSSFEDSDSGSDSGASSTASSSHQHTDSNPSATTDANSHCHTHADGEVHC

T2: Tef1 on C. albicans strain SC5314 hyphae (Candida albicans, UniProt P0CY35 2-458)
T2 construct: whole, on cells; The stained target is the whole fungal cell; also called C. albicans hyphae
T2 sequence (looked up): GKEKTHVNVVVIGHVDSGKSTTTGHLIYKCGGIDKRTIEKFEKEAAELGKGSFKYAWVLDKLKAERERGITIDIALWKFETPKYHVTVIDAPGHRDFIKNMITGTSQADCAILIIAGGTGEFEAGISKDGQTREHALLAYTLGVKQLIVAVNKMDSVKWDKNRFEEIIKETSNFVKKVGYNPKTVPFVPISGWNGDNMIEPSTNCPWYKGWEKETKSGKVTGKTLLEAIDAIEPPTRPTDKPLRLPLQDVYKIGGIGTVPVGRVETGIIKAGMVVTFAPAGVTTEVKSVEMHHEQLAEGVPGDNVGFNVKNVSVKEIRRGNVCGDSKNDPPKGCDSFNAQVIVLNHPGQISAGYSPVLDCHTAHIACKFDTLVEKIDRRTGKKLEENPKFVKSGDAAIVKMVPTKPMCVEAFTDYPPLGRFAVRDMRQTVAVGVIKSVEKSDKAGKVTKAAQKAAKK

B1: monoclonal antibody 8C3 directed against Pra1 of Candida albicans, produced by the hybridoma cell line DSM ACC 3369 (antibody, mouse IgG1, kappa, V domains shown)
VH: EVQLVESGGDLVKPGGSLKLSCAASGFTFSTYGMSWVRQTPDKRLEWVATISSGGSYTYYPDSVKGRFTISRDNVKNTLYLQMSSLKSEDTAMYYCARQGLDDNYAEWYFDVWGAGTTVTVSS
VL: DILLTQSPATLSVTPGETVSLSCRASQSIYKNLHWYQQKSHRSPRLLIKYASDSISGIPSRFTGSGSGTDYTLSINSVKPEDEGKYYCLQGFSTPWTFGGGTKLEIKR
notes: Mouse IgG1, kappa from hybridoma; also called mAb 8C3; anti-Pra1 mAb 8C3
B2: monoclonal antibody 5E1 directed against Tef1 of Candida albicans, produced by the hybridoma cell line DSM ACC 3368 (antibody)
heavy: EVKLVESGGGLVKPGGSLKLSCAASGFTFSSYAMSWVRQTPEKRLEWVASISSGGSTYYPDSVKGRFTISRDNARNILYLQMSSLRSEDTAMYYCARGYDGYDYWGQGTTLTVSSESQSFPNVFPLVSCESPLSDKNLVAMGCLARDFLPSTISFTWNYQNNTEVIQGIRTFPTLRTGGKYLATSQVLLSPKSILEGSDEYLVCKIHYGGKNRDLHVPIPAVAEMNPNVNVFVPPRDGFSGPAPRKSKLICEATNFTPKPITVSWLKDGKLVESGFTTDPVTIENKGSTPQTYKVISTLTISEIDWLNLNVYTCRVDHRGLTFLKNVSSTCAASPSTDILTFTIPPSFADIFLSKSANLTCLVSNLATYETLNISWASQSGEPLETKIKIMESHPNGTFSAKGVASVCVEDWNNRKEFVCTVTHRDLPSPQKKFISKPNEVHKHPPAVYLLPPAREQLNLRESATVTCLVKGFSPADISVQWLQRGQLLPQEKYVTSAPMPEPGAPGFYFTHSILTVTEEEWNSGETYTCVVGHEALPHLVTERTVDKSTGKPTLYNVSLIMSDTGGTCY
light: not shown
notes: Mouse IgM, kappa from hybridoma; also called mAb 5E1; anti-Tef1 mAb 5E1

Legend:
[1] = molecular target: T1, Pra1 on C. albicans strain SC5314 hyphae; assay: flow cytometry and confocal microscopy, summary
[2] = molecular target: T2, Tef1 on C. albicans strain SC5314 hyphae; assay: flow cytometry on C. albicans

Binder | binding result [1] | binding result [2]
B1 | binds | –
B2 | – | binds
